The record followed here is article PMC11375770, “Fragment-Based Interrogation of the 14–3–3/TAZ Protein–Protein Interaction” (Biochemistry, 2024).

Where no end group is shown, it is not given here. [ ]: non-standard residue; d: D form. pS = N[C@@H](COP(=O)(O)O)C(=O)O

The target in one assay is T1, 14-3-3ζ (Homo sapiens, UniProt P63104).
T1 construct: gene YWHAZ; with ERα-derived phosphopeptide (similar Kd with TAZpS89 peptide)
T1 sequence (P63104 1-245): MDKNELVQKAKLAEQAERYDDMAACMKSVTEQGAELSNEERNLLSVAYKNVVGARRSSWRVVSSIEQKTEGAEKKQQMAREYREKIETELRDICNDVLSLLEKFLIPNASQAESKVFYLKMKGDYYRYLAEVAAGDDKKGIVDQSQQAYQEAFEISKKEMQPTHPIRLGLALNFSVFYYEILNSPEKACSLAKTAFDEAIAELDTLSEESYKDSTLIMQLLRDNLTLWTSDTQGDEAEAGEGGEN
T1 sequence (P03372 1-595 partner): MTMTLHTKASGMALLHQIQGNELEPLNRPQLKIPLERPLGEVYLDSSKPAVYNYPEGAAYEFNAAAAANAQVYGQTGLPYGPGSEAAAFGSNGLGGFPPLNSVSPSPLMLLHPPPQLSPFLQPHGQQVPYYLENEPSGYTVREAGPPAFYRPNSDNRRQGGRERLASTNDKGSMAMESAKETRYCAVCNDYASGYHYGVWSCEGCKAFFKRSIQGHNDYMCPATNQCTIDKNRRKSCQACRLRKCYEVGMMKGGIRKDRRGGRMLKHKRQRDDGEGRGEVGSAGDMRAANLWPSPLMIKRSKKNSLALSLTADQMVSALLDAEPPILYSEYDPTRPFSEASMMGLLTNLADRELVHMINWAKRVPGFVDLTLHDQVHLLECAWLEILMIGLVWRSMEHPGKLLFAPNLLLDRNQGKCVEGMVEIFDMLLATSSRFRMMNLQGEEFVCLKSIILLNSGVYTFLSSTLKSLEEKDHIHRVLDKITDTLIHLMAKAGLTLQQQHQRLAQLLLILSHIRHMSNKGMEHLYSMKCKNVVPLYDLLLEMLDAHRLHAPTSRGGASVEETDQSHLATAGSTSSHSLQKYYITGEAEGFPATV
The assay can be described thus: MST dose-response; also DSF and WaterLOGSY NMR with the TAZ peptide complex. It counts as binding.

In assay [1] the target is T2, 14-3-3ζ labelled with NT647-NHS dye (human, UniProt P63104 1-245, NT647-NHS dye (Monolith Protein Labeling Kit RED-NHS); labelled residues not stated).
T2 construct: Same construct as m1, with the fluorescent dye for MST; also called labeled 14-3-3ζ; source: E. coli BL21 (DE3), pProEX HTb plasmid, purified (Ni2+-NTA), labelled with Monolith Protein Labeling Kit RED-NHS
T2 sequence (looked up): T1 sequence (P63104 1-245)
The assay can be described thus: MST; TAZpS89 peptide titrated against a fixed concentration of NT647-labelled 14-3-3ζ; DPBS with 0.05% Tween20, 25 °C; apparent Kd; presence of 1 mM fragment TCF199. The following applies: both partners purified.

The target in assay [2] is T3, 14-3-3σΔC (C-terminally truncated after T231) (human, UniProt P31947 1-231).
T3 construct: also called 14-3-3sigma
T3 sequence (looked up): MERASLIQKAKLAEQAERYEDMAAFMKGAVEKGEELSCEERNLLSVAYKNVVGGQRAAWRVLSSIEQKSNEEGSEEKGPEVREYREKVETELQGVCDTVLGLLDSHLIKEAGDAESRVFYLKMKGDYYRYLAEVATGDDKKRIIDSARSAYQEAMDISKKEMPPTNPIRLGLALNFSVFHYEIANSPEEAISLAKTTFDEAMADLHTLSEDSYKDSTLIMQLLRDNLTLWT
The assay is described as follows: crystal structure; 14-3-3σΔC mixed 1:2 with the peptide, sitting drop, 0.095 M Hepes pH 7.5, PEG 400 26%, 0.19 M CaCl2, 5% glycerol; crystals soaked with 10 mM TCF199. The following applies: both partners purified.

The target in assay [3] is T2, 14-3-3ζ labelled with NT647-NHS dye. The assay is described as follows: MST; TAZpS89 peptide titrated against a fixed concentration of NT647-labelled 14-3-3ζ; DPBS with 0.05% Tween20, 25 °C; apparent Kd; absence of fragment. The following applies: both partners purified.

For `O=C(Nc1ccccc1)OCC12CCCCC1NCCC2` (stereo not shown) [TCF199], the Kd on 14-3-3ζ came out at 112000 ± 77000 nM.

B1: TAZpS89 peptide (peptide)
peptide: QHVRSH[pS]SPASLQ
notes: TAZ-derived peptide surrounding phosphorylated Ser89; The methods of crystallisation say only 'the peptide'; also called TAZ-derived peptide; TAZ peptide; source: synthetic peptide (bought: Caslo, Denmark)
Take B1: the results for the Kd in assay [1] and in assay [3] were 40 nM and 1380 nM, respectively. For the same molecule, in assay [2], the binding result was “binds”.
